Source: PMC3279196 (Journal of Molecular Biology, 2011)
Read-outs that look alike come from different tables or passages of the source.

Columns and labels:
[1] = biological target: T1, CheW from Thermotoga maritima (T. maritima, UniProt Q56311 1-151); assay: NMR titration
T1 sequence (looked up): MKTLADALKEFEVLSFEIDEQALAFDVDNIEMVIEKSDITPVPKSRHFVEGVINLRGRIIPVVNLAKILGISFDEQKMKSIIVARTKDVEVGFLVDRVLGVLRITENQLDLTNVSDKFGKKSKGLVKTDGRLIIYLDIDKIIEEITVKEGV

[2] = biological target: T1, CheW from Thermotoga maritima; assay: NMR titration; remark: listed apart in the source
static light scattering = biological target: the molecule itself; assay: static light scattering

Kd [1]: ~300 µM
Kd [2]: ~1200 µM
B1: TM0014(90-206) with N-terminal tyrosine and His5 tag (domain or fragment, T. maritima, UniProt Q7DFA3 90-206, looked up)
chain: KSGTNVDQIVERVKEASSQIGETLENIRSIEKLIQNIMRIARETNILALNATIEAARAGEAGKGFMIVANEVQNLSNETNEVTKQIVEKAREILESSQRSLENLEFMANLFETVGKT
stoichiometry N (static light scattering): 2
